These results are taken from patent WO2023182244A1 (dated 2023).

This test concerns the target T1, HuNoV GII.2 VLP (VP1 of HuNoV GII.2 OSN201926, baculovirus-expressed virus-like particle) (human norovirus GII.2 (OSN201926), …).
T1 construct: VP1 gene cloned from HuNoV GII.2 (OSN201926), expressed by the baculovirus method as a VLP and purified by ultracentrifugation; also called HuNoV GII.2 VP1; HuNoV GII.2 VLP1
T1 chain: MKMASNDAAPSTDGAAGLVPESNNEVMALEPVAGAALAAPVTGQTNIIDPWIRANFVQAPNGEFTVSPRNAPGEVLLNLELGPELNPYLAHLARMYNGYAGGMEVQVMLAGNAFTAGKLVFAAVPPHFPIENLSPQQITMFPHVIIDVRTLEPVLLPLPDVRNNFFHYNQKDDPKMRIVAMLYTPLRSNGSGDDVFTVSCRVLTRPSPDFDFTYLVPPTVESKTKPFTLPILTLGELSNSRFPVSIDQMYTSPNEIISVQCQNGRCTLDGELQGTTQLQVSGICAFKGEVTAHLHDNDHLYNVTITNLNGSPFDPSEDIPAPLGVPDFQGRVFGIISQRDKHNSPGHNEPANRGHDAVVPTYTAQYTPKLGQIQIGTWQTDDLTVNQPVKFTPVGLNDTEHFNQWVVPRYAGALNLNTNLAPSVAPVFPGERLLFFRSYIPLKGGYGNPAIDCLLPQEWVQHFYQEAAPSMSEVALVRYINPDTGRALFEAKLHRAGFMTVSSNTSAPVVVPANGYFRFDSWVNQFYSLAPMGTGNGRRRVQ
Nature of the test: ELISA of E. coli periplasm fractions on HuNoV GII.2 VLP; clones selected by binding to the antigen.

B1: YGI-1E10 (VHH)
VHH: EVQLVESGGGLVQAGGSLRLSCTAPKSIASFNSVGWYRQAPGKQRELVATITRSRTTNYADSARGRFTISRDNTKNMMFLQMNSLKPEDTAVYYCNARDIVPVFQTYWGQGTRVTVSS
notes: Llama VHH expressed in E. coli from pMEK222 (FLAG tag and His tag), purified on Co resin; also called VHH antibody YGI-1E10; not shown: FLAG tag and His tag from vector pMEK222; not clear whe
As for B1, the binding result is on record as “binds”.

B2: YGI-1B6 (VHH)
VHH: EVQLVESGGGLVQAGGSLRLSCAASGRTFSNYFMGWFRQAPGKEREFVAAISWSGGSTYYTDSVKGRFTISRDNAKNTMYLQMNTLKPEDTAVYYCAAEKASLSGPSYGLGLDFSRYDYWGQGTQVTVSS
notes: Llama VHH expressed in E. coli from pMEK222 (FLAG tag and His tag), purified on Co resin; also called VHH antibody YGI-1B6; not shown: FLAG tag and His tag from vector pMEK222; not clear whe
As for B2, the binding result is recorded as “binds”.

B3: YGI-1C5 (VHH)
VHH: EVQLVESGGGLVQTGGSLRLSCAASGLTFSNYAMGWFRQAPGKEREFVATINWSSSRTIYADSVKGRFTISREDAKNTVYLQMNSLKPEDTAVYYCAAEGGAPRWTTGTRRNDYRYWGQGTQVTVSS
notes: Llama VHH expressed in E. coli from pMEK222 (FLAG tag and His tag), purified on Co resin; also called VHH antibody YGI-1C5; not shown: FLAG tag and His tag from vector pMEK222; not clear whe
On to B3, for which the binding result was “binds”.

B4: YGI-1H3 (VHH)
VHH: EVQLVESGGGLVQAGGSLRLSCVVSGRSFSSLAMGWFRQAPGNQREFVAAISWSGGSSYYGDSVKGRFTISRDDAKNTVYLQMDSLKPEDTADYYCATEIVPKYDTAAYYKSQGAFGSWGQGTQVTVSS
notes: Llama VHH expressed in E. coli from pMEK222 (FLAG tag and His tag), purified on Co resin; also called VHH antibody YGI-1H3; not shown: FLAG tag and His tag from vector pMEK222; not clear whe
As for B4, the binding result is “binds”.

B5: YGI-1F4 (VHH)
VHH: EVQLVESGGGLVQAGGSLRLSCGASGRTFSNYAMGWFRQAPGKEREFVAAINWSGDKTDYADSVKGRFTISRDNVKNFVALQMNSLKPEDTAVYYCATEGGFPQFGSNLKRTSFGLWGQGTQVTVSS
notes: Llama VHH expressed in E. coli from pMEK222 (FLAG tag and His tag), purified on Co resin; also called VHH antibody YGI-1F4; not shown: FLAG tag and His tag from vector pMEK222; not clear whe
B5: the binding result is “binds”.
